From US20180155451A1 (published 2018)

Experiments:
[1] = target: T1, FcγRIIb extracellular domain with C-terminal His tag (human, UniProt P31994 43-217); assay: SPR (Biacore), antibody captured via antigen peptide, FcγR as analyte; binding amount relative to control heterodimerized antibody
T1 construct: extracellular domain; Soluble receptor expressed in FreeStyle293 cells, used as analyte in Biacore; also called FcgRIIb; 2b; not shown: His tag attached to the C terminus
T1 sequence (looked up): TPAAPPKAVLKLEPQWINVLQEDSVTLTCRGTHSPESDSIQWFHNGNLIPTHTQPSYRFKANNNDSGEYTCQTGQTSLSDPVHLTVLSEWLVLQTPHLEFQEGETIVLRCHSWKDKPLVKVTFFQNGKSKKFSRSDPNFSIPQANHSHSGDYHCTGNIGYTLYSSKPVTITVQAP
Procedure: (§1) The heterodimerized antibodies He Abs in which one of the H chains was introduced with an alteration were assayed for their binding activities to each activating FcγR and inhibitory FcγR according to the method described in Example 4. […] The activating FcγRs in FIGS. 26, 27, 28, and 29 are FcγRIa, FcγRIIa (R), FcγRIIa (H), and FcγRIIIa, respectively.
(§2) Analysis of interaction between objective antibody and the FcγR was carried out using Biacore T100 (GE Healthcare). HBS-EP+ (GE Healthcare) was used as the running buffer, and the measurement temperature was set to 25° C. Chips produced by immobilizing the antigen peptide by the amine coupling method to a Series S Sencor Chip CM5 (GE Healthcare), or alternatively, chips produced by allowing preliminarily biotinylated antigen peptides to interact with and immobilize onto a Series S Sensor Chip SA (certified) (GE Healthcare) were used. Antibodies of interest were captured onto an antigen peptide-immobilized chip, and allowed to interact to each FcγR diluted with running buffer. To regenerate and repeatedly use the chip, the antibodies captured on the chip were washed off by reacting 10 mM glycine-HCl, pH 1.5.

[2] = target: T2, FcγRIIIa extracellular domain with C-terminal His tag (human, UniProt P08637 17-208); assay: as above
T2 construct: extracellular domain; Soluble receptor expressed in FreeStyle293 cells, used as analyte in Biacore; also called FcgRIIIa; 3a; not shown: His tag attached to the C terminus
Procedure: as §1, §2
T2 sequence (P08637 17-208): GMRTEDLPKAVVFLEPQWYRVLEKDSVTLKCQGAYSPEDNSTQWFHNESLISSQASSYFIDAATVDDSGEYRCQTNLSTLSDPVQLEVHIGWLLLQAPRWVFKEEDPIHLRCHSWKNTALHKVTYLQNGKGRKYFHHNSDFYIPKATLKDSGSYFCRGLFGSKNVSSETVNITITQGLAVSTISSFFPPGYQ

[3] = target: T2, FcγRIIIa extracellular domain with …; assay: SPR (Biacore); ratio of He/Con_3a (FcγRIIIa) to He/Con_2b (FcγRIIb)
Outline: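 Antibodies with one altered H chain, captured on antigen-peptide chips, were tested against activating and inhibitory FcγRs by SPR. Running buffer HBS-EP+, 25 °C; 10 mM glycine-HCl, pH 1.5 regenerated the surface.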

[4] = target: T3, FcγRIIIa extracellular domain with C-terminal His tag (human, UniProt P08637 17-208); assay: SPR (Biacore); relative FcγRIIIa binding divided by relative FcγRIIb binding of the same antibody
T3 construct: extracellular domain; also called FcgRIIIa; 3a; not shown: His tag attached to the C terminus
Procedure: as §2
(§3) The FcγR-binding activity of each antibody was assessed primarily using as an indicator the FcγR-binding activity and dissociation constant for FcγR.
T3 sequence (P08637 17-208): as above

[5] = target: T4, FcγRIIb extracellular domain with C-terminal His tag (human, UniProt P31994 43-217); assay: SPR (Biacore), antibody captured on antigen peptide chip, FcγR as analyte; bound amount against control heterodimerized antibody
T4 construct: extracellular domain; Expressed in FreeStyle293 cells and used as the analyte in Biacore; also called FcgRIIb; 2b; not shown: His tag attached to the C terminus
T4 sequence (looked up): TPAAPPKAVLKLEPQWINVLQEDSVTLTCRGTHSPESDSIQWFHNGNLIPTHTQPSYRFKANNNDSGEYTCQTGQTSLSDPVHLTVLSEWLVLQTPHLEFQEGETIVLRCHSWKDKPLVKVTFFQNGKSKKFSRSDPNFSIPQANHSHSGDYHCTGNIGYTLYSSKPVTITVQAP
Procedure: as §2, §3

[6] = target: T3, FcγRIIIa extracellular domain with …; assay: as above
Procedure: as §2, §3

Row | Binder | He/Con_2b (IIb binding) [1] | He/Con_3a (IIIa binding) [2] | IIIa/IIb (He_3a/2b) [3] | He_3a/2b (IIIa/IIb) [4] | He/Con_2b (IIb binding) [5] | He/Con_3a (IIIa binding) [6]
1 | GpH7-A5/GpH7-B3 variant I336_02A/GpL16-k0 (heterodimerized antibody, He Ab) (antibody, human IgG1, kappa, Anti-glypican-3 IgG1 heterodimerized antibody; the alteration stands only in the GpH7-B3 chain; Positions in EU numbering; also called I336A) heavy 1: not shown heavy 2: not shown light: DIVMTQSPLSLPVTPGEPASISCQASESLVHSNRNTYLHWYLQKPGQSPQLLIYKVSNRFSGVPDRFSGSGSGTDFTLKISRVEAEDVGVYYCSQNTHVPPTFGQGTKVEIERTVAAPSVFIFPPSDEQLKSGTASVVCLLNNFYPREAKVQWKVDNALQSGNSQESVTEQDSKDSTYSLSSTLTLSKADYEKHKVYACEVTHQGLSSPVTKSFNRGEC | 84.9 relative binding, GpH7-A5/GpH7-B3/GpL16-k0 = 100 | 111 relative binding, GpH7-A5/GpH7-B3/GpL16-k0 = 100 | 1.31 ratio |  |  | 
2 | GpH7-A5/GpH7-B3 variant I336_03V/GpL16-k0 (heterodimerized antibody, He Ab) (antibody, human IgG1, kappa, Anti-glypican-3 IgG1 heterodimerized antibody; the alteration stands only in the GpH7-B3 chain; Positions in EU numbering; also called I336V) heavy 1: not shown heavy 2: not shown light: DIVMTQSPLSLPVTPGEPASISCQASESLVHSNRNTYLHWYLQKPGQSPQLLIYKVSNRFSGVPDRFSGSGSGTDFTLKISRVEAEDVGVYYCSQNTHVPPTFGQGTKVEIERTVAAPSVFIFPPSDEQLKSGTASVVCLLNNFYPREAKVQWKVDNALQSGNSQESVTEQDSKDSTYSLSSTLTLSKADYEKHKVYACEVTHQGLSSPVTKSFNRGEC | 90.3 relative binding, GpH7-A5/GpH7-B3/GpL16-k0 = 100 | 112 relative binding, GpH7-A5/GpH7-B3/GpL16-k0 = 100 | 1.24 ratio |  |  | 
3 | GpH7-A5/GpH7-B3 variant I336_10E/GpL16-k0 (heterodimerized antibody, He Ab) (antibody, human IgG1, kappa, Anti-glypican-3 IgG1 heterodimerized antibody; the alteration stands only in the GpH7-B3 chain; Positions in EU numbering; also called I336E) heavy 1: not shown heavy 2: not shown light: DIVMTQSPLSLPVTPGEPASISCQASESLVHSNRNTYLHWYLQKPGQSPQLLIYKVSNRFSGVPDRFSGSGSGTDFTLKISRVEAEDVGVYYCSQNTHVPPTFGQGTKVEIERTVAAPSVFIFPPSDEQLKSGTASVVCLLNNFYPREAKVQWKVDNALQSGNSQESVTEQDSKDSTYSLSSTLTLSKADYEKHKVYACEVTHQGLSSPVTKSFNRGEC | 89.8 relative binding, GpH7-A5/GpH7-B3/GpL16-k0 = 100 | 119 relative binding, GpH7-A5/GpH7-B3/GpL16-k0 = 100 | 1.33 ratio |  |  | 
4 | GpH7-A5/GpH7-B3 variant I336_13S/GpL16-k0 (heterodimerized antibody, He Ab) (antibody, human IgG1, kappa, Anti-glypican-3 IgG1 heterodimerized antibody; the alteration stands only in the GpH7-B3 chain; Positions in EU numbering; also called I336S) heavy 1: not shown heavy 2: not shown light: DIVMTQSPLSLPVTPGEPASISCQASESLVHSNRNTYLHWYLQKPGQSPQLLIYKVSNRFSGVPDRFSGSGSGTDFTLKISRVEAEDVGVYYCSQNTHVPPTFGQGTKVEIERTVAAPSVFIFPPSDEQLKSGTASVVCLLNNFYPREAKVQWKVDNALQSGNSQESVTEQDSKDSTYSLSSTLTLSKADYEKHKVYACEVTHQGLSSPVTKSFNRGEC | 83.7 relative binding, GpH7-A5/GpH7-B3/GpL16-k0 = 100 | 102 relative binding, GpH7-A5/GpH7-B3/GpL16-k0 = 100 | 1.21 ratio |  |  | 
5 | GpH7-A5/GpH7-B3 variant I336_14T/GpL16-k0 (heterodimerized antibody, He Ab) (antibody, human IgG1, kappa, Anti-glypican-3 IgG1 heterodimerized antibody; the alteration stands only in the GpH7-B3 chain; Positions in EU numbering; also called I336T) heavy 1: not shown heavy 2: not shown light: DIVMTQSPLSLPVTPGEPASISCQASESLVHSNRNTYLHWYLQKPGQSPQLLIYKVSNRFSGVPDRFSGSGSGTDFTLKISRVEAEDVGVYYCSQNTHVPPTFGQGTKVEIERTVAAPSVFIFPPSDEQLKSGTASVVCLLNNFYPREAKVQWKVDNALQSGNSQESVTEQDSKDSTYSLSSTLTLSKADYEKHKVYACEVTHQGLSSPVTKSFNRGEC | 89.5 relative binding, GpH7-A5/GpH7-B3/GpL16-k0 = 100 | 108 relative binding, GpH7-A5/GpH7-B3/GpL16-k0 = 100 | 1.21 ratio |  |  | 
6 | GpH7-A5/GpH7-B3 variant H268_18N/GpL16-k0 (He Ab) (antibody, human IgG1, kappa, Anti-glypican-3 heterodimerized IgG1 antibody; the mutation stands in only one H chain (the GpH7-B3 chain); also called H268N in one H chain) heavy 1: not shown heavy 2: not shown light: DIVMTQSPLSLPVTPGEPASISCQASESLVHSNRNTYLHWYLQKPGQSPQLLIYKVSNRFSGVPDRFSGSGSGTDFTLKISRVEAEDVGVYYCSQNTHVPPTFGQGTKVEIERTVAAPSVFIFPPSDEQLKSGTASVVCLLNNFYPREAKVQWKVDNALQSGNSQESVTEQDSKDSTYSLSSTLTLSKADYEKHKVYACEVTHQGLSSPVTKSFNRGEC |  |  |  | 0.67 ratio of He/Con_3a to He/Con_2b | 156 relative binding activity, GpH7-A5/GpH7-B3/GpL16-k0 = 100 | 104 relative binding activity, GpH7-A5/GpH7-B3/GpL16-k0 = 100
7 | GpH7-A5/GpH7-B3 variant H268_20W/GpL16-k0 (He Ab) (antibody, human IgG1, kappa, Anti-glypican-3 heterodimerized IgG1 antibody; the mutation stands in only one H chain (the GpH7-B3 chain); also called H268W in one H chain) heavy 1: not shown heavy 2: not shown light: DIVMTQSPLSLPVTPGEPASISCQASESLVHSNRNTYLHWYLQKPGQSPQLLIYKVSNRFSGVPDRFSGSGSGTDFTLKISRVEAEDVGVYYCSQNTHVPPTFGQGTKVEIERTVAAPSVFIFPPSDEQLKSGTASVVCLLNNFYPREAKVQWKVDNALQSGNSQESVTEQDSKDSTYSLSSTLTLSKADYEKHKVYACEVTHQGLSSPVTKSFNRGEC |  |  |  | 0.74 ratio of He/Con_3a to He/Con_2b | 111 relative binding activity, GpH7-A5/GpH7-B3/GpL16-k0 = 100 | 82.8 relative binding activity, GpH7-A5/GpH7-B3/GpL16-k0 = 100
